Patent US20030108958A1

Target: AK155 receptor complex (IL-20R1 and IL-10R2), endogenous on human cell lines (human) (UniProt Q9UHF4)
Assay: cell-based or functional assay

Sequence of AK155 receptor complex (IL-20R1 and IL-10R2), endogenous on human cell lines (human) (Q9UHF4 30-553 V259I/L382F limits assumed, chain 1 of 2): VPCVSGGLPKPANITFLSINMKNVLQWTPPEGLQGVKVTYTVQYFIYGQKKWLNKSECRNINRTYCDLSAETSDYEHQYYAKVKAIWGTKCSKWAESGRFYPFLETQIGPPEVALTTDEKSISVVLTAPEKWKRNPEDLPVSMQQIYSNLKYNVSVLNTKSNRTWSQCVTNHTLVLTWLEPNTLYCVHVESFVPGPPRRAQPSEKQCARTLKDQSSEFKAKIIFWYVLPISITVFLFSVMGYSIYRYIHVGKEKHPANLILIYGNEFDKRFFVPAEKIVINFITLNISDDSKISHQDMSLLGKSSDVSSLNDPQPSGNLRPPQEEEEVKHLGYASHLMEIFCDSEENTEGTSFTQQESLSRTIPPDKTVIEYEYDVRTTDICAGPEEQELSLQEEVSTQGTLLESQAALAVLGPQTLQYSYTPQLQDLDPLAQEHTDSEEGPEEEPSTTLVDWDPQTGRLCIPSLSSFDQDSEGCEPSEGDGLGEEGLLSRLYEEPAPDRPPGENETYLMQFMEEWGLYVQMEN
Sequence of AK155 receptor complex (IL-20R1 and IL-10R2), endogenous on human cell lines (human) (chain, as listed by the source limits assumed, chain 2 of 2): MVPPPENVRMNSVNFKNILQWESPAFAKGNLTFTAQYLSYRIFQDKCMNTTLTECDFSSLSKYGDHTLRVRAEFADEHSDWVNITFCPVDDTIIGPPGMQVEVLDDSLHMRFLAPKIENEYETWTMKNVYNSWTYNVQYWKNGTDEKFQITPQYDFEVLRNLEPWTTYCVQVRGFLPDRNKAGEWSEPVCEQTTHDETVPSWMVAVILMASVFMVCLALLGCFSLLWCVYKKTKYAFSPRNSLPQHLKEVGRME

An IL-8 in supernatant of Colo-205 cells (ELISA), 24 h, with AK155 (without AK155: 552) of 670 pg/mL, an IL-8 in supernatant of Colo-205 cells (ELISA), 48 h, with AK155 (without AK155: 623) of 989 pg/mL and an IL-10 in supernatant of Colo-205 cells (ELISA), 24 h, with AK155 (without AK155: 61) of 112 pg/mL were found for “AK155 (from UniProt Q9NPH9 22-171) (ligand)” in this work. It also gave an IL-10 in supernatant of Colo-205 cells (ELISA), 48 h, with AK155 (without AK155: 60) of 94 pg/mL.
